Assays:
[1] = molecular target: Gαq-glutathione S-transferase fusion protein; assay: hydroxyl radical alkyl 1H/2H exchange footprinting, LC-MS of DNS-amino acids; 50 µM GST-Gaq/100 µM CTP, 200 µM OH radical
[2] = molecular target: Gαq-glutathione S-transferase fusion protein; assay: hydroxyl radical alkyl 1H/2H exchange footprinting, LC-MS of DNS-amino acids; 50 µM GST-Gaq/100 µM CTP, 400 µM OH radical
[3] = molecular target: Gαq-glutathione S-transferase fusion protein; assay: hydroxyl radical alkyl 1H/2H exchange footprinting, LC-MS of DNS-amino acids; 30 µM GST-Gaq/15.6 µM CTP, 400 µM OH radical
[4] = molecular target: Gαq-glutathione S-transferase fusion protein; assay: hydroxyl radical alkyl 1H/2H exchange footprinting normalised to internal reference 2,4-DNP-Leu; 50 µM GST-Gaq/100 µM CTP, 200 µM OH radical
[5] = molecular target: Gαq-glutathione S-transferase fusion protein; assay: hydroxyl radical alkyl 1H/2H exchange footprinting normalised to internal reference 2,4-DNP-Leu; 50 µM GST-Gaq/100 µM CTP, 400 µM OH radical
[6] = molecular target: Gαq-glutathione S-transferase fusion protein; assay: hydroxyl radical alkyl 1H/2H exchange footprinting normalised to internal reference 2,4-DNP-Leu; 30 µM GST-Gaq/15.6 µM CTP, 400 µM OH radical

Δ Isotope Ratio free/Δ Isotope Ratio bound (residue Ala) [1]: 4.5 | Δ Isotope Ratio free/Δ Isotope Ratio bound (residue Asp) [1]: -2 | Δ Isotope Ratio free/Δ Isotope Ratio bound (residue Glu) [1]: 1.8 | Δ Isotope Ratio free/Δ Isotope Ratio bound (residue Gly) [1]: 1.2 | Δ Isotope Ratio free/Δ Isotope Ratio bound (residue Ile) [1]: 2.5 | Δ Isotope Ratio free/Δ Isotope Ratio bound (residue Leu) [1]: 2.3 | Δ Isotope Ratio free/Δ Isotope Ratio bound (residue Lys, diDNS-Lys derivative) [1]: 2.4 | Δ Isotope Ratio free/Δ Isotope Ratio bound (residue Ser) [1]: 0 | Δ Isotope Ratio free/Δ Isotope Ratio bound (residue Val) [1]: 2.4 | Δ Isotope Ratio free/Δ Isotope Ratio bound (residue Ala) [2]: 6.3 | Δ Isotope Ratio free/Δ Isotope Ratio bound (residue Asp) [2]: -2.5 | Δ Isotope Ratio free/Δ Isotope Ratio bound (residue Glu) [2]: 6.5 | Δ Isotope Ratio free/Δ Isotope Ratio bound (residue Gly) [2]: 0.5 | Δ Isotope Ratio free/Δ Isotope Ratio bound (residue Ile) [2]: 2.9 | Δ Isotope Ratio free/Δ Isotope Ratio bound (residue Leu) [2]: 3.1 | Δ Isotope Ratio free/Δ Isotope Ratio bound (residue Lys, diDNS-Lys derivative) [2]: 3.1 | Δ Isotope Ratio free/Δ Isotope Ratio bound (residue Ser) [2]: 0 | Δ Isotope Ratio free/Δ Isotope Ratio bound (residue Val) [2]: 2.7 | Δ Isotope Ratio free/Δ Isotope Ratio bound (residue Ala) [3]: 0.8 | Δ Isotope Ratio free/Δ Isotope Ratio bound (residue Asp) [3]: 0.53 | Δ Isotope Ratio free/Δ Isotope Ratio bound (residue Glu) [3]: 1.2 | Δ Isotope Ratio free/Δ Isotope Ratio bound (residue Gly) [3]: 0.99 | Δ Isotope Ratio free/Δ Isotope Ratio bound (residue Ile) [3]: 1.4 | Δ Isotope Ratio free/Δ Isotope Ratio bound (residue Leu) [3]: 1.3 | Δ Isotope Ratio free/Δ Isotope Ratio bound (residue Lys, diDNS-Lys derivative) [3]: 1.3 | Δ Isotope Ratio free/Δ Isotope Ratio bound (residue Ser) [3]: -1.2 | Δ Isotope Ratio free/Δ Isotope Ratio bound (residue Val) [3]: 1.3 | Protection Factor (residue Ala) [4]: 2 | Protection Factor (residue Asp) [4]: -0.77 | Protection Factor (residue Glu) [4]: 0.51 | Protection Factor (residue Gly) [4]: 0.32 | Protection Factor (residue Ile) [4]: 0.62 | Protection Factor (residue Leu) [4]: 0.59 | Protection Factor (residue Lys) [4]: 0.58 | Protection Factor (residue Ser) [4]: 0 | Protection Factor (residue Val) [4]: 0.61 | Protection Factor (residue Ala) [5]: 7.2 | Protection Factor (residue Asp) [5]: -1.5 | Protection Factor (residue Glu) [5]: 6.3 | Protection Factor (residue Gly) [5]: 0 | Protection Factor (residue Ile) [5]: 2.2 | Protection Factor (residue Leu) [5]: 2.4 | Protection Factor (residue Lys) [5]: 2.3 | Protection Factor (residue Ser) [5]: 0 | Protection Factor (residue Val) [5]: 2 | Protection Factor (residue Ala) [6]: 0.24 | Protection Factor (residue Asp) [6]: 0.16 | Protection Factor (residue Glu) [6]: 0.37 | Protection Factor (residue Gly) [6]: 0.3 | Protection Factor (residue Ile) [6]: 0.41 | Protection Factor (residue Leu) [6]: 0.39 | Protection Factor (residue Lys) [6]: 0.39 | Protection Factor (residue Ser) [6]: -0.35 | Protection Factor (residue Val) [6]: 0.38
B1: C-terminal peptide (…) of the third intracellular loop of the 5-hydroxytryptamine2A receptor (peptide)
peptide: SNEQKACKVLGI

— patent US6660836
